Experimental data reported in patent US20230273213A1, “PEPTIDE DESIGN AND GALECTIN-3 INHIBITORS” (City of Hope, priority 2020, published 2023).
Blank lines part the entries; values can stand above or below the compound they belong to.

Legend:
GST-Galectin-3 = biological target: T1, GST-Galectin-3 (Homo sapiens, UniProt P17931); assay: Galectin-3 mediated agglutination assay on LAX56 pre-B ALL cells; type: cell-based
T1 construct: Full-length human GST-Galectin-3 (hereafter named GST-Gal3) in pGEX2T was previously described; made in house
Experimental: Cells, culture and agglutination assay. LAX56 human pre-B ALL cells were routinely co-cultured with mitomycin-C inactivated OP9 stromal cells. These previously described primary leukemia cell grew directly out from a relapse bone marrow sample (36, 37). For agglutination assays, cells were harvested, washed once in α-MEM medium, resuspended in 10 ml X-VIVO 15 medium (Lonza) and incubated at 37° C. for 24 h remove the Galectin-3 produced by OP9 stromal cells. For the assay, ALL cells were resuspended in X-VIVO 15 medium at a concentration of 1×10^6/ml and seeded at 2×10^5/200 μl cells into wells. […] Peptides, if included, were preincubated for 5 minutes with the recombinant proteins and added at different concentrations as indicated in the figures. TD139 was purchased from MedChemExpress and used at 100 μM. Phase contrast images were taken after 1-2 hours. Agglutination was defined as aggregates containing >10 cells per cluster. 2-13 images from different areas were taken and evaluated for cell clusters per condition. Biological data were graphed with GraphPad Prism software (version8.3.1). Values represent mean±SEM of the number of aggregates scored per independent image.
We used two approaches to test this experimentally. Mutation of critical residues in that pocket could abolish binding to the IDR and the agglutination activity of Galectin-3. Also, a peptide could potentially fit in the shallow pocket and inhibit the IDR interaction. A classical test for carbohydrate-binding activity of a lectin including Galectin-3 is an agglutination assay (36, 38, 42). In this assay, recombinant Galectin-3 is tested for its ability to promote lattice formation by binding in a multivalent manner to glycoproteins located on the cell surface: when cell surface glycoprotein targets are located on different cells, carbohydrate binding combined with multimer formation causes cellular agglutination. […] Thus we used an agglutination assay in which recombinant Galectin-3 is added to patient-derived precursor B-acute lymphoblastic leukemia cells (pre-B ALL) as a readout for Galectin-3 lattice-forming activity.

GST-Gal3 L203A = biological target: T2, GST-Gal3 L203A (Homo sapiens, UniProt P17931, L203A); assay: agglutination assay with GST-Gal3 L203A mutant; type: cell-based; settings: LAX56 cells
T2 construct: Full-length human GST-Galectin-3 (hereafter named GST-Gal3) in pGEX2T was previously described; made in house; host or cells: E. coli BL21(DE3)
Experimental: (§1) Cells, culture and agglutination assay. LAX56 human pre-B ALL cells were routinely co-cultured with mitomycin-C inactivated OP9 stromal cells. These previously described primary leukemia cell grew directly out from a relapse bone marrow sample (36, 37). For agglutination assays, cells were harvested, washed once in α-MEM medium, resuspended in 10 ml X-VIVO 15 medium (Lonza) and incubated at 37° C. for 24 h remove the Galectin-3 produced by OP9 stromal cells. For the assay, ALL cells were resuspended in X-VIVO 15 medium at a concentration of 1×10^6/ml and seeded at 2×10^5/200 μl cells into wells. GST (12.5 μg/ml) or GST-Galectin-3 (25 μg/ml or 150 μg/ml, two different isolates) recombinant proteins were added in 300 μl X-VIVO 15 medium to duplicate wells. Peptides, if included, were preincubated for 5 minutes with the recombinant proteins and added at different concentrations as indicated in the figures. TD139 was purchased from MedChemExpress and used at 100 μM. Phase contrast images were taken after 1-2 hours. Agglutination was defined as aggregates containing >10 cells per cluster. 2-13 images from different areas were taken and evaluated for cell clusters per condition. Biological data were graphed with GraphPad Prism software (version8.3.1). Values represent mean±SEM of the number of aggregates scored per independent image.
(§2) GST-Galectin-3 and mutants. […]

Galectin-3 CTD = biological target: T3, Galectin-3 CTD (Homo sapiens, UniProt P17931); assay: 15N-1H HSQC NMR titration of Galectin-3 CTD with peptide-3; type: binding
T3 construct: We generated a Galectin-3 CTD construct including amino acids 117-250; GST (N, cleaved yes); made in house; host or cells: E. coli BL21(DE3), M9 medium with 15N ammonium chloride
Experimental: Galectin-3 CTD construct for NMR. The Galectin-3 C-terminal domain construct was generated using the same methods described above for the mutants. The protein includes Galectin-3 amino acids P117-1250 as well as residual attached glycine and serine residues after thrombin cleavage. Single colonies were grown overnight in LB+ amp, collected by centrifugation then inoculated in M9 media with ammonium-^15N chloride (Sigma) and grown for 3-4 hours. After induction of protein production with IPTG for an 3-4 additional hrs, cells were harvested and suspended in 1% NP40, PI, PMSF, 1 mM DTT, 50 mM Tris-HCl, pH 7.5. Cells were disrupted by sonication. GST-Galectin-3 was bound to glutathione-agarose (Genscript Cat #L00207) overnight at 4° C. Beads were washed 4× in lysis buffer, then suspended in 50 mM Tris-HCl pH 7.5, 0.1 mM DTT and treated with 60 u thrombin/ml (Fisher Cytiva Thrombin Protease) for 16 hrs at RT. The supernatant containing Galectin-3 protein was treated with benzamidine sepharose (Sigma, HiTrap Benzamidine FF) to bind and remove thrombin. Protein was concentrated using an Amicon 3K filter and used in 20 mM potassium phosphate buffer pH 6.8, 0.1 mM DTT for NMR. Protein concentrations were determined by BCA.
NMR. ^15N-^1H HSQC 700 MHz spectra were acquired with 20 μM Galectin-3 CTD [in 20 mM potassium phosphate buffer, pH 6.8, 0.1 mM DTT] and different molar ratios of added peptide-3 as indicated in FIG. 5. The chemical shift perturbation (CSP) 06 was calculated using the following equation: Δ\ delta=√{square root over ((ΔωN^2+ΔωH^2)/2)}. The ΔωN and ΔωH are the nitrogen and proton chemical shift difference between free ^15N-CTD and that in the mixture with P3 peptide. Assignments are based on the Galectin-3 CTD NMR data of Ippel (25) and Umemoto (39). […] Because L135 and W181 patterns differ between Ippel and Umemoto, their assignments could not be unambiguously determined. […]

GST-Gal3 L131A = biological target: T4, GST-Gal3 L131A (Homo sapiens, UniProt P17931, L131A); assay: agglutination assay with GST-Gal3 L131A mutant; type: cell-based; settings: LAX56 cells
T4 construct: Full-length human GST-Galectin-3 (hereafter named GST-Gal3) in pGEX2T was previously described; made in house; host or cells: E. coli BL21(DE3)
Experimental: as §1, §2

[1] = GST-Gal3, 1-2 hours, peptide preincubated 5 minutes with protein

T3 sequence (P17931 117-250): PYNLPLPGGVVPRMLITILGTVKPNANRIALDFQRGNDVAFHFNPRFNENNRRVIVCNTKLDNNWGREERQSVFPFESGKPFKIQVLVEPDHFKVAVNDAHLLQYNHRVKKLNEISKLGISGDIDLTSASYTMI
T1 sequence (P17931 2-250): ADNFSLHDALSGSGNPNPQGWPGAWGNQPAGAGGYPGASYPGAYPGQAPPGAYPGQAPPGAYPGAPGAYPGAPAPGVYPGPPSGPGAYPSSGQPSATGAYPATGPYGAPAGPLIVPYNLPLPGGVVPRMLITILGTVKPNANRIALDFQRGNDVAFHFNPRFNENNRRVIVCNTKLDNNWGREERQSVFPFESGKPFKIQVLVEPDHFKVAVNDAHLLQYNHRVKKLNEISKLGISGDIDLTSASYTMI
T4 sequence (P17931 whole entry L131A): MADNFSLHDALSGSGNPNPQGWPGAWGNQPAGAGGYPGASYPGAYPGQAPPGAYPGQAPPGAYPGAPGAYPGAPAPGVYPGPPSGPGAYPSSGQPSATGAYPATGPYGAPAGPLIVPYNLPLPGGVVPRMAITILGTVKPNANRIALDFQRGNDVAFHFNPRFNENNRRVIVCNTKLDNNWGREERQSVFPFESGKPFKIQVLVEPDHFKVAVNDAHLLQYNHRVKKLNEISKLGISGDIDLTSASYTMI
T2 sequence (P17931 whole entry L203A): as the sequence (P17931 whole entry L131A) above, with A131L, L203A counted along it

Compound: ACE-ARAMGYPGASY-NH2 (Ac-ARAMGYPGASY-NH2) [Peptide 1]
effect on Galectin-3-mediated agglutination (GST-Galectin-3; [1]): had no effect on agglutination

Compound: ACE-YYPGAYPRRYR-NH2 (Ac-YYPGAYPRRYR-NH2) [Peptide 3]
effect on Galectin-3-mediated agglutination (GST-Galectin-3; [1]): positive hit
effect on Galectin-3-mediated agglutination (GST-Galectin-3; GST-Gal3, 1-2 hours, peptide preincubated 5 minutes with protein, listed as P3): efficiently inhibits
effect on Galectin-3-mediated agglutination (GST-Galectin-3; GST-Gal3, 1-2 hours, peptide preincubated 5 minutes with protein, listed as YYPGAYPRRYR): inhibits Galectin-3 mediated agglutination
effect on Galectin-3-mediated agglutination (GST-Galectin-3; GST-Gal3, 1-2 hours, peptide preincubated 5 minutes with protein, listed as peptide 3): inhibits agglutination
effect on Galectin-3-mediated agglutination (GST-Galectin-3; GST-Gal3, 1-2 hours, peptide preincubated 5 minutes with protein, listed as peptide-3): clearly was inhibitory
inhibition of agglutination mediated by the L203A mutant (GST-Gal3 L203A): could still be inhibited
contacts with the CTD by NMR (Galectin-3 CTD; 20 μM 15N CTD, up to 100:1 peptide:CTD): makes extensive contacts with amino acids in the CTD
shift of S-face residues R186, K227 or Y221 upon exposure (Galectin-3 CTD; data not shown): no shift
chemical shift perturbation (CSP) of residue T248 (Galectin-3 CTD; one unit of RMSD): about 10.9 Hz
inhibition of agglutination mediated by the L131A mutant (GST-Gal3 L131A): largely insensitive to inhibition

Compound: N-terminal acetyl-ARAFGYPIYSY-C-terminal amide (Ac-ARAFGYPIYSY-NH2) [Peptide 2]
effect on Galectin-3-mediated agglutination (GST-Galectin-3; [1]): had no effect on agglutination

Continued, values first:

effect on Galectin-3-mediated agglutination (GST-Galectin-3; [1]): did not have an effect
Compound: ANTPCGPYTHDCPVKR [Peptide-4, reference compound]

effect on Galectin-3-mediated agglutination (GST-Galectin-3; GST-Gal3, 100 μM, positive control): clearly inhibited
Compound: OC[C@H]1O[C@@H](S[C@@H]2O[C@H](CO)[C@H](O)[C@H](n3cc(-c4cccc(F)c4)nn3)[C@H]2O)[C@H](O)[C@@H](n2cc(-c3cccc(F)c3)nn2)[C@H]1O [TD139, 3-deoxy-3-[4-(3-fluorophenyl)-1H-1,2,3-triazol-1-yl]-β-D-galactopyranosyl 3-deoxy-3-[4-(3-fluorophenyl)-1H-1,2,3-triazol-1-yl]-1-thio-β-D-galactopyranoside, reference compound]

effect on Galectin-3-mediated agglutination (GST-Galectin-3; [1]): did not have an effect
Compound: PTHVTCKYCPAGNRDP [Peptide-5, scrambled negative control peptide described in the same study, reference compound]
